{
  "source": "IntAct's records for PubMed 23353789",
  "parents": {"B1": {"name": "Chromosome partition protein Smc (Bacillus subtilis), P51834 (parent)", "chain": "MFLKRLDVIGFKSFAERISVDFVKGVTAVVGPNGSGKSNITDAIRWVLGEQSARSLRGGKMEDIIFAGSDSRKRLNLAEVTLTLDNDDHFLPIDFHEVSVTRRVYRSGESEFLINNQPCRLKDIIDLFMDSGLGKEAFSIISQGKVEEILSSKAEDRRSIFEEAAGVLKYKTRKKKAENKLFETQDNLNRVEDILHELEGQVEPLKIQASIAKDYLEKKKELEHVEIALTAYDIEELHGKWSTLKEKVQMAKEEELAESSAISAKEAKIEDTRDKIQALDESVDELQQVLLVTSEELEKLEGRKEVLKERKKNAVQNQEQLEEAIVQFQQKETVLKEELSKQEAVFETLQAEVKQLRAQVKEKQQALSLHNENVEEKIEQLKSDYFELLNSQASIRNELQLLDDQMSQSAVTLQRLADNNEKHLQERHDISARKAACETEFARIEQEIHSQVGAYRDMQTKYEQKKRQYEKNESALYQAYQYVQQARSKKDMLETMQGDFSGFYQGVKEVLKAKERLGGIRGAVLELISTEQKYETAIEIALGASAQHVVTDDEQSARKAIQYLKQNSFGRATFLPLSVIRDRQLQSRDAETAARHSSFLGVASELVTFDPAYRSVIQNLLGTVLITEDLKGANELAKLLGHRYRIVTLEGDVVNPGGSMTGGAVKKKNNSLLGRSRELEDVTKRLAEMEEKTALLEQEVKTLKHSIQDMEKKLADLRETGEGLRLKQQDVKGQLYELQVAEKNINTHLELYDQEKSALSESDEERKVRKRKLEEELSAVSEKMKQLEEDIDRLTKQKQTQSSTKESLSNELTELKIAAAKKEQACKGEEDNLARLKKELTETELALKEAKEDLSFLTSEMSSSTSGEEKLEEAAKHKLNDKTKTIELIALRRDQRIKLQHGLDTYERELKEMKRLYKQKTTLLKDEEVKLGRMEVELDNLLQYLREEYSLSFEGAKEKYQLETDPEEARKRVKLIKLAIEELGTVNLGSIDEFERVNERYKFLSEQKEDLTEAKNTLFQVIEEMDEEMTKRFNDTFVQIRSHFDQVFRSLFGGGRAELRLTDPNDLLHSGVEIIAQPPGKKLQNLNLLSGGERALTAIALLFSILKVRPVPFCVLDEVEAALDEANVFRFAQYLKKYSSDTQFIVITHRKGTMEEADVLYGVTMQESGVSKVISVKLEETKEFVQ", "partner": "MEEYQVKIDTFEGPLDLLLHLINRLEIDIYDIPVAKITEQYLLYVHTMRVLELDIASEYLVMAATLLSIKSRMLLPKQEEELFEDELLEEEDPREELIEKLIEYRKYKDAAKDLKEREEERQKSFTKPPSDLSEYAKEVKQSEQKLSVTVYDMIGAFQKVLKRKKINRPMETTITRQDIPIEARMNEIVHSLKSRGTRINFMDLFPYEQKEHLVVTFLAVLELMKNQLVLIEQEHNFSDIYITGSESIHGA"}, "B2": {"name": "Segregation and condensation protein A (Bacillus subtilis), P35154 (parent)", "chain": "B1 partner", "partner": "B1 chain"}},
  "data": [
    {"variants_of": "B1", "details": "with scpa_bacsu scpA", "values": [
      {"variant": "Y170E", "effect of a mutation on the interaction": "decreasing interaction strength"},
      {"variant": "V1021E", "effect of a mutation on the interaction": "disrupting interaction strength"}
    ]},
    {"variants_of": "B1", "details": "with scpa_bacsu scpA", "remark": "another data set of the same source", "values": [
      {"variant": "V1176E", "effect of a mutation on the interaction": "disrupting interaction strength"},
      {"variant": "I1174E", "effect of a mutation on the interaction": "disrupting interaction strength"}
    ]},
    {"variants_of": "B2", "details": "with smc_bacsu smc", "values": [
      {"variant": "MEEYQVKIDTFEGPLDLLLHLINRLEIDIYDIPVAKITEQYLLYVHTMRVLELDIASEYKVMAATLLSIKSRMLLPKQEEELFEDELLEEEDPREELIEKLIEYRKYKDAAKDLKEREEERQKSFTKPPSDLSEYAKEVKQSEQKLSVTVYDMIGAFQKVLKRKKINRPMETTITRQDIPIEARMNEIVHSLKSRGTRINFMDLFPYEQKEHLVVTFLAVLELMKNQLVLIEQEHNFSDIYITGSESIHGA", "note": "[L60K]", "effect of a mutation on the interaction": "disrupting interaction strength"},
      {"variant": "MEEYQVKIDTFEGPLDLLLHLINRLEIDIYDIPVAKITEQYLLYVHTMRVLELDIASEYLVMAATLESIKSRMLLPKQEEELFEDELLEEEDPREELIEKLIEYRKYKDAAKDLKEREEERQKSFTKPPSDLSEYAKEVKQSEQKLSVTVYDMIGAFQKVLKRKKINRPMETTITRQDIPIEARMNEIVHSLKSRGTRINFMDLFPYEQKEHLVVTFLAVLELMKNQLVLIEQEHNFSDIYITGSESIHGA", "note": "[L67E]", "effect of a mutation on the interaction": "disrupting interaction strength"},
      {"variant": "MEEYQVKIDTFEGPLDLLLHLINRLEIDIYDIPVAKITEQYLLYVHTMRVLELDIASEYLVMAATLLSIESRMLLPKQEEELFEDELLEEEDPREELIEKLIEYRKYKDAAKDLKEREEERQKSFTKPPSDLSEYAKEVKQSEQKLSVTVYDMIGAFQKVLKRKKINRPMETTITRQDIPIEARMNEIVHSLKSRGTRINFMDLFPYEQKEHLVVTFLAVLELMKNQLVLIEQEHNFSDIYITGSESIHGA", "note": "[K70E]", "effect of a mutation on the interaction": "disrupting interaction strength"}
    ]}
  ]
}
